# Test results published in article PMC6629707, “The Kindlin2-p53-SerpinB2 signaling axis is required for cellular senescence in breast cancer” (Cell Death & Disease, 2019).
# Molecular target: T1, purified p53 protein (Abcam) (UniProt P04637 1-393)
# T1 construct: p53 protein bought from Abcam; also called immobilized p53; source: bought: Abcam
# Test: ELISA; solid phase direct binding assay; p53 immobilised on 96-well plates at 5 μg/well, 20 h, 4 °C; 3% BSA; GST-tagged Kindlin-2 variants or GST 0–7 µM in TBS with 1 mM CaCl2, 1 mM MgCl2, 2 h at 37 °C; detected with anti-GST-HRP; GST signal subtracted; one-site binding fit
# Settings: both partners purified
# T1 sequence (P04637 whole entry): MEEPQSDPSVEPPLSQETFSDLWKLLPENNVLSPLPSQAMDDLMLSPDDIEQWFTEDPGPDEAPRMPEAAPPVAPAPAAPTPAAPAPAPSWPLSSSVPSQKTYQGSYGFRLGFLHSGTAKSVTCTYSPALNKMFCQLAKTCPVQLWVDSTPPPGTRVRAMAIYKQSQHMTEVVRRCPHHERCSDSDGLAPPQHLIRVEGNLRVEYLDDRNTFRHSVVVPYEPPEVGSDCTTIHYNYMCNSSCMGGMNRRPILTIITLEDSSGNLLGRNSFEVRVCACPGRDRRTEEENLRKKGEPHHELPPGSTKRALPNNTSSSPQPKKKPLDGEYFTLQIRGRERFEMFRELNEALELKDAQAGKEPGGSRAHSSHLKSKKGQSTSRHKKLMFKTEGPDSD
binder,measurement,value
"GST-tagged full-length wild-type Kindlin-2 (natural protein, UniProt Q96AC1 1-680, looked up, Kindlin-2, full length, wild type; expressed as a GST fusion protein; also called Kindlin-2-GST; GST-tagged WT Kindlin-2; source: Escherichia coli, purified on Glutathione-Sepharose) MALDGIRMPDGCYADGTWELSVHVTDLNRDVTLRVTGEVHIGGVMLKLVEKLDVKKDWSDHALWWEKKRTWLLKTHWTLDKYGIQADAKLQFTPQHKLLRLQLPNMKYVKVKVNFSDRVFKAVSDICKTFNIRHPEELSLLKKPRDPTKKKKKKLDDQSEDEALELEGPLITPGSGSIYSSPGLYSKTMTPTYDAHDGSPLSPTSAWFGDSALSEGNPGILAVSQPITSPEILAKMFKPQALLDKAKINQGWLDSSRSLMEQDVKENEALLLRFKYYSFFDLNPKYDAIRINQLYEQAKWAILLEEIECTEEEMMMFAALQYHINKLSIMTSENHLNNSDKEVDEVDAALSDLEITLEGGKTSTILGDITSIPELADYIKVFKPKKLTLKGYKQYWCTFKDTSISCYKSKEESSGTPAHQMNLRGCEVTPDVNISGQKFNIKLLIPVAEGMNEIWLRCDNEKQYAHWMAACRLASKGKTMADSSYNLEVQNILSFLKMQHLNPDPQLIPEQITTDITPECLVSPRYLKKYKNKQITARILEAHQNVAQMSLIEAKMRFIQAWQSLPEFGITHFIARFQGGKKEELIGIAYNRLIRMDASTGDAIKTWRFSNMKQWNVNWEIKMVTVEFADEVRLSFICTEVDCKVVHEFIGGYIFLSTRAKDQNESLDEEMFYKLTSGWV",EC50,480 nM
